Experimental data as given in doi:10.1101/2020.05.12.090472 (bioRxiv, 2020).
No end group written: not given here. *: point of attachment. Biotin = O=C1N[C@H]2[C@H](CS[C@H]2CCCCC(=O)*)N1

Target: Recombinant Cdk5/p25 complex (human Cdk5 and p25 with N-terminal GST-tags) (human, UniProt Q00535 1-292; Q15078 99-307)
Assay: pull-down

## Biotin-ARAFGIPVRCYS [biotin-conjugated Cdk5i peptide]
  binding result: binds
